Reference: the supplement of paper PMC12636428

Tested on: Saccharomyces cerevisiae
Assay: transcriptional activation domain activity (GFP:mCherry ratio, weighted mean of sorted bins, harmonized to initial dataset scale) (arbitrary fluorescence ratio units); higher = stronger transcriptional activation
Details: beta-estradiol 1 µM; induction time 4 h
In short: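 After a 1:5 dilution into SC with 1 uM beta-estradiol and 4 hours at 30 °C, yeast diploids carrying a GFP reporter and URA3-integrated barcoded tiles were sorted into 8 bins by GFP:mCherry ratio. The tiles were fused to an estradiol-inducible synthetic transcription factor. Barcodes were sequenced, tiles below 50 reads were discarded, and activation activity was taken as the read-weighted mean of bin median fluorescence, averaged across barcodes and linearly mapped onto the initial dataset scale.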

Sequence	transcriptional activation domain activity
MTGIFFFFFLLFLFLQLGIGTVFERLLSFQFPNYILFPILPPLHPSSPPFFTY	38600
VFLNGILFLGSILFYQVVLLRLNWYLLHILAYTIAFAYNAFWLYPVYCLSFLL	33000
EKDKENDKGEKGEGEKKGENRRGRRRGGRGRGGGGDKDKEKEKDGGGGGGAKR	47000
ILVMWTVISCPVFSFPDRGHGSMLFFLFKLCLVMLLTYLVTMLWFLCVFSIVV	52100
QNESERLGPPKKKRRRQALSCTECKRRKIKCDRTHPCGPCARRSEPEKCQWHV	27600
AAGAAAPAKAAPAGARKARKGAAAAAPAAAPAAGAAPAQGAAAKKGGRLGGAA	30000
SSATASAADAATTDAASGSLEARKKKDDKKKGDKKKGKKGDKKGGKKAASTTA	12500
GKGKRKAVSEEEDKDEEGDEEPVKAKGKGKGKGKRKVVAKKVKRRAPAAADTS	< 6570
EQEEEEEEEEAKQPKKKRAKKWFEDESSGDEDTGDRKKKKRKARAAAAAAAAA	41300
LYSRYCLLLICIFFVTLQFTTVRFTVRSFYFNTLSFFYLSFWCPQIYRNIMRN	53600
SDNGTENNGETKKRYDPKDPLRPRRKKARRACYACQRAHLTCGDERPCQRCIK	16400
IISGAGSNMERELFYCLQNVRFRGPLLRVILLVLKACWLLKNLWVYWLIVYHR	45800
AKLESCNPRAYLDPSTAPIATMARGNQRDKAREANLKKQAAQKKGNSMSGTEM	44300
KNNDATIDNELTQILNEYNMNFNDNLGTSTSGKNKSACPSSFDANAMTKINPS	51800
HTQENEKVMWNIGSWNAPSLTNSWDSPPGNRTGAVTIGDESINGSEMPDFSLD	36100
DEEQDRSHRHRRSRSASPRRHKSGNEARERDRHGDDHSRRHRRRRSHERSHRH	48700
MRDNQYPPYLLSVVHFTCQPPFGVRNLHSPIFILFQYVPHVLLIHFSSFVIFF	64300
EEAFVAINLRNLLTFGLTYFINDWILDDGVLFVFCILGMLFLVVCLMTIPLWI	29000
METPEQPSAGRRRPHRKSRTGCAECRRRRIKCDEVKPACTACVRHDHPCVYPS	22000
LSLYRLSFPASFSLFSSFPSCLVAFPFPLPLPLPLPPSCSPFLLLLLLLLFFS	51900
MLPLVLLLLLLLLLLLLLLLLLLLLLLLLLIMMMIMMMMFLLFLLLLRARVRQ	13600
ILNITPYAAGQFGYYYGTCWFNDPRPDVQFRWLLGSQSVWILLMSTGEVVFFF	< 6570
LQSSLLHPCAFYVRLLISILIEYISLPCLTIDFFFFFIFRVTFPIFFLTFFYL	61400
EFVQVAAKPVAKKEESSDEDSDDESEDEKPAAKKAAAPVKVCSGFPYANIALI	32200
NILFHKLFYAYENVLVIISLIYKKKPLGRLQNTRKCSSINVLCNYILEYGRKY	42100

Sequence	transcriptional activation domain activity
MVWIRSKSPIKWLYIWLYYVRRPRINVASYTTKWVTIESELVFLAENFLDDKC	33300
MHYRYIAGFFFVHTFSCGQGLKDSNLILQCVPLYPQLHPFFLIFLHFFVFLSL	70600
MYLEVRCQLLGCMAIWWDNWFRLDLLSLVSAYRILLLCMGEFLIWKFWFIRLF	60000
MIVVVLCLPSALTHLGCLFYHDPSSPFALVTFSVSLIIILPNLGVILFGFFNI	48600
IEKLGITVLQREVVNNGLEISHDFRALRVALCARQPLLQVVWFKNHLPSVYYF	69900
MEWHLLGSCLAGLVWGVFYIFFFFAACLIGFFPYHYHYLLLLLVLLTTNILFV	49500
MSDWEEKWSKSRNRPYYFNKTTNESVWDKPDGFDGPAAKPPGSEGKVRASHLL	38300
MHILVELAVFLICRCSQIWRTWVQGGKLAISHNKLVRPTFFRRLLHCIWLFRL	72200
HHLSSQLVFSRSRFFYSSFTSWINVFLVISLIVFLLSILLLFLIIFLLHYIFF	24800
HALRTFVYKAAIIPISLFLVHFRRAFSCLCFCALSGFPRCHLTLLSIMFIFSL	53700
STVHNLCELVFLPELFGFCCFSMRFFVFIDLLGTLILPATVVYLLYLIITVAT	62500
FSDGELSDDALDKQGKKEKKRKAKAIESGDATPVESKPEKERKKKKSKPEAET	31100
MRDIIGISIFLFFSLFLFYLSFCFCMRNVNLSFSLFILTLIDCLTDLLIMVPI	60300
FLHCEPPTLLRLLGFFLCLVFSLYFTLSFPFFGPMLLLIRFSLGLPLPLVLMG	58300
ANHQVYVDWWYTWCLTYFMETHRDVCIVLKKSLKWIPVAGWGMQFFKFIFLAR	39400
GQLLVALAREAFTLVTWRTTLQGKLEVEIFPPSDLLLNRYMWYVLHLLDHTSL	13100
IDPHGYDANGLYEIGTIVSSIAVCVANFFVVFSLYSYTWIQALVISLSILVYY	45700
EIGALMLLSKTLEDNPNRLGSLVRILTLKCFIPQSYFKLMVRRLNILFSCCSR	64300
MFLFIYFVCVCVFSLSLLWDGVSGWVLFVLDWIGLIGGMCVWAYIIIFYEFLV	63200
RCLVLFLWALDTIHFAFTSHGLYFYLVTSFGDFAVLLSPTWTILAQVYVTNLS	50100
HWKLNLYFMLTNVIVVLPLYQVYIYLLGCHPKSPLYHHRVKLSVFAWSIWFYC	36200
MYCVSFSHFYPPPLSFFHYGFDIFLFIFLIFFFCCPFLFAQVVVGYAICWYHT	51300
GKADKKETANGKSTDSKTAGGNANSTARKRKTSNASVQDQKAAKATTTAASRK	27600
HMALVHLFAFLDRFALFGKLYRAAQVVNRVTSPYVVLAWTSLYSFSLRVVART	52400
RYPFILFPFYSLLSHFLLLLTEIALCLKYCLLLSLCSPILLFLLVFLLLAFCL	47600

Sequence	transcriptional activation domain activity
ARNGSSSGDILFSNGAHDMINNISTWTNNSVLDALNSKSILQTIFPQSQEPSS	58200
DPNSPLDGDVDELRSREIAAKAVTGTLILLLKWLKLSHVLKFEYVTQLLLDLN	57100
EEESQAKKTTAAASSTKDLDPKGGTSGKEKKENEGTLTKRGKSGRRKVRKSVL	17800
IEKNMYPVGTLLTLADHGFNGWLKTTLLPYLNLLHNLDVLDPELLTIFTSFIL	54700
EAAPKEDAAPEPAPEKESKPEKAPEPKAEASKPAAPPASEKKDLKTAPKEETK	28500
MAWAYGSCLCRCCFFFASLWQFLFFVFGFLPFWPFFGFLLFISVVLPPSSLFL	46100
ASIISQRSGIVRALSRLMIFDRKLRVKDTHLRRLQHRIVIQSLVFGAFFSCVG	54700
LGFIEIVRVCPRFGILFLCMALSFISIVVDLLSVTPVIPIGVINPFWKFAFVF	58100
MINKKTNPCKILFDPFSSFLFGNLILLSLFLFVDVIFSLPCFLYVCFVFFPSL	69200
GSKTRSTTSRDRSVRNDDKKSTTSGRRSVVSGSKEERRRRSSKKSVPAASETA	34600
LLIQPLIQGFCYLMQFWISFFSSLFCFVTGDIPILLGILIPFYCLFFFHFFLF	58700
DRNYKRVARQIGFTIDRKHGDDLRHFPIERARLELIWPLLGFGLSCYLCYGWV	49600
GASTPVTTGGKRKSDGGAGGSAKKERKTPAAKKDKEEKAPRGKANGAKATAAS	22000
MVSTRRQERDKEKKEKRKEEKEKEKGEGKTEKKKKKKSGDKKSKKGEGRTKEG	21200
SLSVVLLHMRHRRLLFSVVMILFIFWMLYVGHCMLYVLLLLRVLLLSLHLWIV	31700
ALEKDKKEEPKEDSKKDESKTEKKEEEDNKDENGRPKLVVKRLRKETTAAAAV	20000
EASRSKAATAAAAAADGGKSAAAGEVEERKRKAKAEREAKKAKGALAAAAGAG	31600
MLRTWVLLLLVGLLGVFVRADDEPASEEPKSGGLSLSRLSQLVTSGVTGARPP	39300
GLTLLCLRRILQLWAGSDQLSELVSYVPVHLRVLAMRDAAVFAPLSRKVLQAL	57700
APSSSAAADGLTSPKPTGTRAALRSILREEGAAGLLRGLSPRVAKVAPACGMM	42700
NTCCCFFVCSFPSSKQKTLGALREGSWTFFFCFFLFFFLFFLVFFCFFLFCFF	24000
SVLHTMYVVAIKDSSAWYGDSPADLCMIGFWNLVIVWLKLLIPWRFFRLWAIL	55900
SKSRSSSSSSSSSSSSSSSSSSSESEKSHSKHKSKSKSKSKARKSKSKSKHRG	18100
FTQFEDTWNLDVTPNFLPDLNDFDMERLDFSLADDFAQSIASFPYSPPETLLI	149000
